# Measured values reported in the nanobody polyreactivity screen of Harvey et al. (2022).
# Test: yeast display, Sf9 membrane polyspecificity reagent, FACS + sequencing; frameworks hold sequencing errors
# Outline: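 Using colony PCR, genes from sorted yeast display clones were amplified, then sequenced on MiSeq at 2 × 250 and filtered by CDR length. The clones had been stained with 10% biotinylated, detergent-solubilized Sf9 membrane reagent for 1 hour at 4 °C and sorted by FACS into low and high (top ~1%) gates on anti-HA and streptavidin fluorescence. Polyreactivity labels come from the gate of origin.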
row,Sequence,polyreactivity (PSR sort gate)
1,QVQLVESVGGLVQAGGSLRLSCAASGSIFYYNTMGWYRQAPGKVRELVATISSDGGTNYADSVKGRFTISRDNAKNTVYLQMNSLKPEDTAVYYCAAAVSPYSYWPGFDYWGQGTQVTVSS,low polyreactivity
2,QVQLVESVGGLVQAGGSLRLSCAASGSMFKVYAMGWYRQAPGKEREFVAAITSSDSNTNYADSVKGRFTISRDNAKNTVYLQMNSLKPEDTAVYYCNKDGGGDSYWYDYWGQGTQVTVSS,low polyreactivity
3,QVQLVESVGGLVQAGGSLRLSCAASGSNFGSYAMGWYRQAPGKERSTYYADSVKGRFTISRDNAKNTVYLQMNSLKPEDTAVYYCAADTYGYQGSAGGHWGQGTQVTVSS,low polyreactivity
4,QVQLVESVGGLVQAGGSLRLSCAASGSTFAFNAMGWYRQAPGKEREFVAAITWRGGSTYYADSVKGRFTISRDNAKNTVYLQMNSLKPEDTAVYYCARRPGYALTWRVSGRYDYWGQGTQVTVSS,high polyreactivity
5,QVQLVESVGGLVQAGGSLRLSCAASGSTFKAYAVGWYRQAPGKEGELVAAITKSGGRTYYADSVKGRFTISLDNAKNTVYLQMNSLKPEDTAVYYCAAVFRPDSSAFRYYYWGQGTQVTVSS,high polyreactivity
6,QVQLVESVGGLVQAGGSLRLSCAASGSTFVDYAMGWYRQAPGKERELVAGINGSGGSTYYADSVKGRFTISRDNAKNTVYLQMNSLKPEDTAVYYCNARNPWRKRSQGYSWGQGTQVTVSS,low polyreactivity
7,QVQLVESVGGLVQAGGSLRLSCAASGSTFYRYAMGWYRQAPGKERELVAAISSDGTTYYADSVKGRFTISRDNAKNTVYLQLNSLKPEDTAVYYCAKRGYYRSRRYDYWGQGTLVTVSS,high polyreactivity
8,QVQLVESVGGLVQAGGSLRLSCAASGSTYDHNAMGWSRHAPGKERELVAAISSDGSTNYADSVKGRFTISRDNAKNTVYLQMNSLKPEDTGVYYCNADGVYLGDYEYWGQGTQVTVSS,low polyreactivity
9,QVQLVESVGGLVQAGGSLRLSCAASGSTYPYYAMGWYRQAPGKERELVAASTSGGSTNYADSVKGRFTISRDNAKNTVYLQMNSLKPEDTSVYYCATDWSVDLWTWYYYWGQGTQVTVSS,high polyreactivity
10,QVQLVESVGGLVQAGGSLRLSCAASGYTFFYAMGWYRQAPGKERELVASITSAASTTYADSVKGRFTISRDNAKNTVYLQMNSLKPEDTAVYYCAASHSWWFYPGYYYWGQGTQVTVSS,high polyreactivity
11,QVQLVESVGGLVQAGGSLRLSCAASVRTFSSYAMGWYRKPPGKERELVAVITSGSSTHYADSVKGRFTISRDNAKNTVYLQMNSLKPEDTAVYYCAARDIREIDCISYWYDYWGQGTQVTVSS,high polyreactivity
12,QVQLVESVGGLVQAGGSLRLSCAASVYTFPRYTMGWYRQAPGKERELVAAINWSGGSTYYADSVKRRFTISRDNAKNTVYLQMNSLKPEDTAVYYCNKAYVSRYDYWGQGTQVTVSS,high polyreactivity
13,QVQLVESVGGLVQAGGSLRLSCAATGFILAPYAMGWYRQSPGKETELVAAITRSGGITYYADSVKGRFTISRDNAKNTVYLQMNSLKPEDTAVYYCAARNYRYRYARAYDYWGQGTQVTVSS,high polyreactivity
14,QVQLVESVGGLVQAGGSLRLSCASSGFIFATNTMGCYRQAPGKERALVAAMSRSGGSTYYADSVKGRFTISRDNAKNTVYLQMNSLKPEDTAVYYCAADVRLRSTRARFDYWGQGTQVTVSS,high polyreactivity
15,QVQLVESVGGLVQAGGSLRLSCDASGGIFWVYAMGWYRQAPGKERELVAAISNSDTSTSYADSVKGRFTISRDNAKNTVYLQMNSLKPEDTAVYYCNADSPSLSGDYWGQGTQVTVSS,low polyreactivity
16,QVQLVESVGGLVQAGGSLRLSCSASGITFSYNAMGWYRQAPGKERELVAAISDIGGSTYYADSVKGRFTISRDNAKNTVYLQMNSLKPEDTAVYYCAADEYYQDEYDYWGQGTQVTVSS,low polyreactivity
17,QVQLVESVGGLVQAGGSLRLSCSASGSIIYSYAMGWYRQAPGKERELVADITTGGGSTYYADSVKGRFTISRDNAKNTVYLQMNSLKPEDTAVYYCAAEQDTVWFLWIVDYCGQGTQVTVSS,low polyreactivity
18,QVQLVESVGGLVQAGGSLRLSSAASGLIFDVYPMGWYSQGPGKERELVAAISTSGGRTYYADSVKGRFTISRDNAKNTVYLQMTSLKPEDTAVYYCAAVSPHNRYGYKYDYWGQGTQVTVSS,high polyreactivity
19,QVQLVESVGGLVQAGGSLRLSSAASGRTFKGNAMGCYSQAHGKERELVAVITGSGGSTYYADSVKGRFTISRDNAKNTVYLQMNSLKPEDTAVYYCNKKLQRRSWYVYWGLGTQVTVSS,low polyreactivity
20,QVQLVESVGGLVQAGGSLRLSSAASGRTFYFYTMGWYTQAPGKERELVATIRWSAGSTYYADSVKGRFTISRDNAKNTVYLQMNSLKPEDTAVYYCNADPYVYSSWQYGYWGQGTQVTVSS,high polyreactivity
21,QVQLVESVGGLVQAGGSLRLSSAASGRTSWYYAMGWYRQAPGKERELVATITRTTGSTYYADSVKGRFTISRDNAKNTVYLQMNSLKPEDTAVYYCDRLYYFNGDYWGLGTQVTVSS,high polyreactivity
22,QVQLVESVGGLVQAGGSLRLSSSASGSNCVLNAIGWYRQAPGKEWELVAAITKVGSTYYADSVKGRFTISRDNAKNTVYLQMNSLIPEDTAVYYCNADPGEVLVGYDYWGQGTQVTVSS,low polyreactivity

row,Sequence,polyreactivity (PSR sort gate)
1,QVQLVESVGGLVQAGVSLRLSCAASGRIFGRYPMGWYRQAPGKERELVAAISFNGGSTSYADSVKGRFTISRDNAKNTVYLQMNSLKQEDTAVYYCAAKYRGFNYWGQGTQVTVSS,high polyreactivity
2,QVQLVESVGGLVQEGGSLRLSCAASGFTFAFYAMGWYRQAPGKERELVAAMTRSGGSTYYADSVKGRFTISRDNAKNTVYLQMNSLKPEDTAVYYCAAVISRWGRSTYDYWGQGTQVTVSS,high polyreactivity
3,QVQLVESVGGVVQAGGSLRLSCAASGRIFDRNAKGWYSQAPGKERELVAAITSGGSTNYADSVKGRFTISRDNAKNTVYLQMNSLKPEDTAVYYCANDFTSRYAPPEAYDYWGQGTQVTVSS,low polyreactivity
4,QVQLVESVGRLVQAGGSLRLSCAASGFIFIFYTMGWYRHAPGKERELVASITSSGGSTYYADSVKGRFTISRDNAKNTVYLQMNSLNPEDTAVYYCAAKKYRSPRGYWGLGTQVTVSS,high polyreactivity
5,QVQLVESVGRLVQAGGSLRLSCAASGIIFSVNAMGWYRQAPGKERELVAAITYSGGSTYYADSVKGRFTISRDNAKNTVYLQMNSLKPEDTAVYYCATSYYSSGTWSEYYYWCQGTQVTVSS,high polyreactivity
6,QVQLVESVGVLVQAGGSLPLSCAASGFTFQQYAMGWYRQAPGKERELVAAISWSGGSTNYADSVKGRFTISRDNAKNTVYLQMNSMKPEDTAVYYCAAYLRYYRKEVGYSSMNYWGQGTQVTVSS,high polyreactivity
7,QVQLVESVGVLVQAGGSLRLSSAASGGILPRYAMGWYRQAPGKERELVAVITRGGSTYYADSVKGRFTISRDNAKNTVYLQMNSLKPEDNAVYYFAKYRYQTGIFYYWGQGTQVTVSS,high polyreactivity
8,QVQLVESVRGLVQAGGSLLLSCAASGITITHYDMGWYRHSSGKESELVAAITSSGRTYYADSVKGRFSLSRDNAKNTVYLQMNSLKPEDTAVYYCDAEHSWFYGLLGYWGQGTQVTVSW,high polyreactivity
9,QVQLVESVRGLVQAGGSLRLICDASGRTFPRYAKGWNRQAPGKEWEFVAAIRYSGDNTYYADSVKGRFTISRDNAKNTVYLQMNSLKPEDTAVYYCAARTYGNYRYSTYYYWGQGTQVTVSS,high polyreactivity
10,QVQLVESVRGLVQAGGSLRLSCAASGRILPSNAMGWYRQAPGKERELVAGITSGGSTDYADSVKGRFTISRDNAKNTVYLQMNSLKPEDTAVYYCNKPFPYYPDGPNGYDYWGQGTQVTVSS,low polyreactivity
11,QVQLVESVRGLVQAGGSLRVSCAASGRTFIVYAMGWYRQAPGKERELVAGITRGSTKYADSVKGRFTISRDNAKNTVYLQMNSLKPEDTAVYYCAGRSSRRGPISEGDYWGQGTQVTVSS,high polyreactivity
12,QVQLVESVVGLVQAGGSLRLSCAASGSIFIENTMGWYRQAPGKERELVAAISGSVGRTFYADSVKGRFTISRDNAKNTVYLQMNSLKPEDTAVYYCAAVRRTSPGWVYYWGQGTRVTVSS,high polyreactivity
13,QVQLVESVVGLVQAGVSLRLSCAASGSIFEQYAMGWYRQAPGKERELVAAISKRGTSTYYADSVKGRFTISRDNAKNTVYLQINSLKPEDNAVYDCAATNRWYYRAAASVYAFGYWGLGTQVTVSS,high polyreactivity
14,QVQLVESVVGLVQAVGTLRLSSAATGSTIYRNAMGWYRQPPGKEREFVAAISFRGGGTYADSVKGRFTISRDNAKNTVYLQMNSLKPEDTAVYYCAADHLSYRRRYEYWGQGTQVTVSS,low polyreactivity
15,QVQLVESVVGLVQSRVRHPLSCSASGIIFAQNAMGWYRQAPGKERELVARITSSGGGTNYADSVKGRFTISRDNAKNTVYLQMNSLKPEDTAVYYCATRWPYRSDWGQGTQVTVSS,high polyreactivity
16,QVQLVESWAGLVQAGGRLRLSCAASGSSFQVYAMGWYRQAPGKERELVAAISGDGGSTYYADSVKGRFTISRDNAKNTVYLQMNSLKPEDTAVYYCAARGLFRYTDYGYWGQGTQVTVST,low polyreactivity
17,QVQLVESWAGLVQAGGSLRLSCAASGIIFHFNDMGWYRQAPGKERELVAAITSGGSTNYADSVKARFTISRDNAKNNVYLQMNSLKPEDTAVYYCAARRGLRLFAYSHGYWGQGSQVTVSS,low polyreactivity
18,QVQLVESWGGLFQAGGSLRLSCAASGRTFSYNAMGWYRQAPGKERELVAAMTWRGSTTYYADSVKGRFTISRDHAKNTVYLQMNSLKPEDTAVYYCADATGQPYILDYWGQGTQVTVSS,low polyreactivity
19,QVQLVESWGGLVEAGGSLRLSCAASGRTFRSYAMVWYRQAPWKERELVAAISDGGSTNYADSVKGRFTISRDNAKNTVYLQMNSLKPEDTAVYYCAAVIFFAVFRFYYWGQGTQVTVSS,low polyreactivity
20,QVQLVESWGGLVHAGGSLRLSCAASGSIFDWYAMGWYRQAPGTERELVAAINEGGGSTYYADSVKGRFTISRDNAKNSVYLQMNSLKPEDTAVYYCAAGDYYLQDNYWGQGTQVTVSS,low polyreactivity
21,QVQLVESWGGLVHAGGSLRLSCAASGSTFAGYAMGWYRKATGTERELVATITYSGGSTYYADSVKGRFTISRDNAKNTVYLQMNSLKTEDTAVYYCAKKASYWWGYEYWGQGTQVTVSS,low polyreactivity
